# Reference: article PMC4983702
# Biological target: Aar-MBP fusion protein (E. coli (EAEC 042))
# Assay: SPR
binder,measurement,value
AggR-MBP fusion protein (natural protein) MKLKQNIEKEIIKINNIRIHQYTVLYTSNCTIDVYTKEGSNTYLRNELIFLERGINISVRLQKKKSTVNPFIAIRLSSDTLRRLKDALMIIYGISKVDACSCPNWSKGIIVADADDSVLDTFKSIDHNDDSRITSDLIYLISKIENNRKIIESIYISAVSFFSDKVRNTIEKDLSKRWTLAIIADEFNVSEITIRKRLESEYITFNQILMQSRMSKAALLLLDNSYQISQISNMIGFSSTSYFIRLFVKHFGITPKQFLTYFKSQ,Kd,20 to 40 nM
